The results in this text go back to US20170037149A1 (Amgen, published 2017).

Changes are numbered by the printed parent chain. Where only a bound is given, the exact number is not on record here.

In this assay the target is T1, human FLT3 (human, UniProt P36888 27-993).
T1 construct: On transfected CHO cells, or on the FLT3 positive human AML cell lines EOL-1 / MV4-11 where the row says so; also called hu FLT3; full length human FLT3
In words: FACS, scFv on CHO-human FLT3 pre-incubated with FLT3 ligand (competitor). A general note: Flow cytometry measures light scatter and fluorescence of single cells or particles in a stream.

Protocol: The detection was performed using mouse anti-FLAG+PE-conjugated goat anti-mouse and the Fluorescence median detected by FACS (median (+ligand)/median (w/o ligand)*100%)
Afterwards cells were not washed but directly stained with FLT3 binder (scFv's). […] As negative control, cells were incubated with an unspecific scFv instead of FLT3 scFv.
For the evaluation of the data, the fluorescence median was detected by FACS.

B1: FL-46 scFv (scFv)
scFv: QVTLKESGPVLVKPTQTLTLTCTFSGFSLSNARMGVSWIRQPPGKCLEWLALIYWNDDKRYSPSLKSRLTITKDTSKNQVVLTMTNMDPVDTATYYCARMVGYGSGWYAYFDYWGQGTLVTVSSGGGGSGGGGSGGGGSDIQMTQSPSSLSASVGDRVTITCRASQGIRNDLGWYQQKPGKAPKRLIYAASSLQSGVPSRFSGSGSGTEFTLTISSLQPEDFATYYCLQHNSYPLTFGCGTKVEIK
notes: periplasmic prep
B1: the “median [+ligand]/median [w/o ligand]*100” value was ≥ 75%.

B2: FL-12 scFv (scFv)
scFv: QVTLKESGPALVKPTETLTLTCTVSGFSLSNARMGVSWIRQPPGKALEWLANIFSNDEKSYSTSLKSRLTISKGTSKSQVVLTMTNMDPEDTATYYCARIVGYGSGWYGYFDYWGQGTLVTVSSGGGGSGGGGSGGGGSDIQMTQSPSSLSASVGDRVTITCRASQGIRNDLGWYQQKPGKAPQRLIYAASSLQSGVPSRFSGSGSGTEFTLTISSLQPEDFATYYCLQHNSYPLTFGGGTKVEIK
notes: periplasmic prep
B2: the “median [+ligand]/median [w/o ligand]*100” value is ≥ 75%.

B3: FL-16 scFv (scFv)
scFv: QVTLKESGPVLVKPTETLTLTCTVSGFSLRNARMAVSWIRQPPGKTLEWLAHIFSNDEKSYSTSLKSRLTISKDTSKSQVVLTMTNMDPVDTATYYCARIVGYGSGWYGYFDYWGQGTLVTVSSGGGGSGGGGSGGGGSDIQMTQSPSSVSASVGDRVTITCRASQDIRYDLAWYQQKPGKAPKRLIYAASSLQSGVPSRFSGSGSGTEFTLTISSLQPEDFATYYCLQHNFYPLTFGGGTKVEIK
notes: periplasmic prep
B3: the “median [+ligand]/median [w/o ligand]*100” value is ≥ 75%.

B4: FL-32 scFv (scFv)
scFv: QVTLKESGPTLVKPTETLTLTCTVSGFSFRNARMGVSWIRQPPGKALEWLAHIFSNDEKSYSTSLKSRLTISKDTSKGQVVLTMTNMDPVDTATYYCARIVGYGSGWYGYFDYWGQGTLVTVSSGGGGSGGGGSGGGGSDIQMTQSPSSLSASVGDRVTITCRASQGIRNDLVWYQQKPGKAPKRLIYAASTLQSGVPSRFSGSGSGTEFILTISSLQPEDFATYFCLQHYSYPLTFGGGTKLEIK
notes: periplasmic prep
Turning to B4, the “median [+ligand]/median [w/o ligand]*100” value was ≥ 75%.

B5: FL-29 scFv (scFv)
scFv: B2 scFv with E16Q, V24F, N52H, S62R, G74D, E90V, G109A, Q184K
notes: periplasmic prep
For the molecule B5, the “median [+ligand]/median [w/o ligand]*100” value is ≥ 75%.

B6: FL-15 scFv (scFv)
scFv: B3 scFv with V10A, V24L, R30N, S78G, V150L, R169G, Y170N, A173G, F232S
notes: periplasmic prep
For B6, the “median [+ligand]/median [w/o ligand]*100” value was ≥ 75%.

B7: FL-45 scFv (scFv)
scFv: B2 scFv with E16Q, V24F, A46C, N52H, S62R, G74D, E90V, G109A, Q184K, G239C
notes: periplasmic prep
On to B7, for which the “median [+ligand]/median [w/o ligand]*100” value is ≥ 75%.

B8: FL-42 scFv (scFv)
scFv: QVTLKESGPALVKPTETLTLTCTLSGFSLNNARMAVSWIRQPPGKCLEWLAHIFSNDEKSYSTSLKSRLTISKDTSKSQVVLTMTNMDPEDTATYYCARIVGYGTGWYGFFDYWGQGILVTVSSGGGGSGGGGSGGGGSDIQMTQSPSSLSASVGDRVTITCRASQGIRNDLAWYQQKPGKAPKRLIYAASSLQSGVPSRFSGSGSGTEFTLTISSLQPEDFATYYCLQHNSYPLTFGCGTKVEIK
notes: periplasmic prep
As to B8, the “median [+ligand]/median [w/o ligand]*100” value was ≥ 75%.

B9: FL-33 scFv (scFv)
scFv: QVTLKESGPVLVKPTETLTLTCTVSGFSLRNARMGVSWIRQPPGKTLEWLAHIFSNDEKSYSTSLKSRLTISKDTSKGQVVLTMTNMDPVDTATYYCARIVGYGSGWYGYFDYWGQGTLVTVSSGGGGSGGGGSGGGGSDIQMTQSPSSLSASVGDRVTITCRASQGIGDDLGWYQQIPGKAPKRLIYATSVLQSGVPSRFSGSGSGTEFTLTISSLQPEDFATYYCLQHNSYPLTFGGGTKLEIK
notes: periplasmic prep
With B9, the “median [+ligand]/median [w/o ligand]*100” value is ≥ 75%.

B10: FL-20 scFv (scFv)
scFv: B8 scFv with C46T, C239G
notes: periplasmic prep
B10: the “median [+ligand]/median [w/o ligand]*100” value was ≥ 75%.

B11: FL-39 scFv (scFv)
scFv: QVTLKESGPTLVKPTETLTLTCTLSGFSLNNARMGVSWIRQPPGKCLEWLAHIFSNDEKSYSTSLKNRLTISKDSSKTQVVLTMTNVDPVDTATYYCARIVGYGSGWYGFFDYWGQGTLVTVSSGGGGSGGGGSGGGGSDIQMTQSPSSLSASVGDRVTITCRASQGIRNDLGWYQQKPGKAPKRLIYAASTLQSGVPSRFSGSGSGTEFTLTISSLQPEDFATYYCLQHNSYPLTFGCGTKVEIK
notes: periplasmic prep
Take B11: the “median [+ligand]/median [w/o ligand]*100” value was ≥ 75%.

B12: FL-13 scFv (scFv)
scFv: B11 scFv with C46A, C239G
notes: periplasmic prep
With B12, the “median [+ligand]/median [w/o ligand]*100” value was ≥ 75%.

B13: FL-47 scFv (scFv)
scFv: B8 scFv with E16Q, L24F, N30S, A35G, N86D, A164T, A173G
notes: periplasmic prep
In the case of B13, the “median [+ligand]/median [w/o ligand]*100” value was ≥ 75%.

B14: FL-5 scFv (scFv)
scFv: QVTLKESGPMLVKPTETLTLTCTFSGFSLRNARMGVSWIRQPPGKALEWLAHIFWNDEKSYSTSLKSRLTISKDTSKSQVVLTMTNMDPVDTATYYCARIPYYGSGSYNYGMDVWGQGTTVTVSSGGGGSGGGGSGGGGSDIQMTQSPSSLSASVGDRVTITCRASQGIRNDLGWYQQKPGKAPKRLIYAASSLQSGVPSRFSGSGSGTEFTLTISSLQPEDFATYYCLQHNTYPLTFGGGTKVDIK
notes: periplasmic prep
Turning to B14, the “median [+ligand]/median [w/o ligand]*100” value is ≥ 75%.

B15: FL-48 scFv (scFv)
scFv: B14 scFv with A46C, G240C
notes: periplasmic prep
B15: the “median [+ligand]/median [w/o ligand]*100” value is ≥ 75%.

B16: FL-34 scFv (scFv)
scFv: B14 scFv with M10A, T233S, V244L, D245E
notes: periplasmic prep
Take B16: the “median [+ligand]/median [w/o ligand]*100” value was ≥ 75%.
